Measurements from patent US20250109207A1.

Experiments:
Human FcγRIIb (human) [1] = target: Human FcγRIIb (human) (UniProt P31994); test: SPR (Biacore); His-tagged FcγR captured on anti-penta-His chip, antibody injected
[2] = target: Human FcγRIIa (R131) (human) (UniProt P12318); test: as above
[3] = target: Human FcγRIIa (H131) (human) (UniProt P12318); test: as above
[4] = target: Human FcγRIIIa (V176) (human) (UniProt P08637); test: as above
Human FcγRIIb (human) [5] = target: Human FcγRIIb (human) (UniProt P31994); test: SPR (Biacore); His-tagged FcγR captured, antibody injected; kinetic fit or steady state
[6] = target: Human FcγRIIa (R131) (human) (UniProt P12318); test: as above
[7] = target: Human FcγRIIa (H131) (human) (UniProt P12318); test: as above

Sequence of Human FcγRIIb (human) (P31994 46-217 limits assumed): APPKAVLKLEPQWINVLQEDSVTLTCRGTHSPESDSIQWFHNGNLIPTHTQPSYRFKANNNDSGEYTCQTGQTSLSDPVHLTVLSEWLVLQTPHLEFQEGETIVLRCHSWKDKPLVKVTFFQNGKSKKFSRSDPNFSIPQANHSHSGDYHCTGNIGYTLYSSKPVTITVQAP
Sequence of Human FcγRIIa (H131) (human) (P12318 36-218 limits assumed): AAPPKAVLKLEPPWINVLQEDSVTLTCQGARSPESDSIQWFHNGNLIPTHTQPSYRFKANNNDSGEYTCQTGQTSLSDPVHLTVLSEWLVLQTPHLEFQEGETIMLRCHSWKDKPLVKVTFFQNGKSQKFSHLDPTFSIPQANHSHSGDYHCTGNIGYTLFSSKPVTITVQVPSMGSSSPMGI
Sequence of Human FcγRIIa (R131) (human) (P12318 36-218 H167R limits assumed): as the sequence (P12318 36-218 limits assumed) above, with H132R counted along it
Sequence of Human FcγRIIIa (V176) (human) (P08637 17-208 F176V limits assumed): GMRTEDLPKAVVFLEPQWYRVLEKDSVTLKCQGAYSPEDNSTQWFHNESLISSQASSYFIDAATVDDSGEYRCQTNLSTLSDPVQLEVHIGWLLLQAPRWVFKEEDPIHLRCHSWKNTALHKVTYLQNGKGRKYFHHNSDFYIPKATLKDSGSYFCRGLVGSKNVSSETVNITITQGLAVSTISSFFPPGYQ

B1: mAb3, IgG4s (antibody, part only; not given: variable domains and light chain, not shown: another chain or arm of the molecule)
Fc: ESKYGPPCPPCPAPPVAGPSVFLFPPKPKDTLMISRTPEVTCVVVDVSQEDPEVQFNWYVDGVEVHNAKTKPREEQFNSTYRVVSVLTVLHQDWLNGKEYKCKVSNKGLPSSIEKTISKAKGQPREPQVYTLPPSQEEMTKNQVSLTCLVKGFYPSDIAVEWESNGQPENNYKTTPPVLDSDGSFFLYSRLTVDKSRWQEGNVFSCSVMHEALHNHYTQKSLSLSLGK
- binding signal (RU) (Human FcγRIIb (human) [1]): 226 RU
- binding signal (RU) [2]: 340 RU
- binding signal (RU) [3]: 419 RU
- binding signal (RU) [4]: 34 RU
- Kd (Human FcγRIIb (human) [5]): 12300 nM
- Kd [6]: 1320 nM
- Kd [7]: 1610 nM
